Test results as given in paper PMC5048913.

Tests used:
Assay in all cases: split reporter
[1] = molecular target: Yn-fused MDM2, wild type (FLAG-tagged MDM2-Yn) (UniProt Q00987)
[2] = molecular target: M2-dAZ-Yn (Yn-fused MDM2 deleted of the AZ domain) (UniProt Q00987)
[3] = molecular target: M2-dIAZ-Yn (Yn-fused MDM2 deleted of the I1 and AZ domains) (UniProt Q00987)

Chain of Yc-fused NS, wild type (Myc-tagged NS-Yc) (Q9BVP2 whole entry, the tested form may be a part): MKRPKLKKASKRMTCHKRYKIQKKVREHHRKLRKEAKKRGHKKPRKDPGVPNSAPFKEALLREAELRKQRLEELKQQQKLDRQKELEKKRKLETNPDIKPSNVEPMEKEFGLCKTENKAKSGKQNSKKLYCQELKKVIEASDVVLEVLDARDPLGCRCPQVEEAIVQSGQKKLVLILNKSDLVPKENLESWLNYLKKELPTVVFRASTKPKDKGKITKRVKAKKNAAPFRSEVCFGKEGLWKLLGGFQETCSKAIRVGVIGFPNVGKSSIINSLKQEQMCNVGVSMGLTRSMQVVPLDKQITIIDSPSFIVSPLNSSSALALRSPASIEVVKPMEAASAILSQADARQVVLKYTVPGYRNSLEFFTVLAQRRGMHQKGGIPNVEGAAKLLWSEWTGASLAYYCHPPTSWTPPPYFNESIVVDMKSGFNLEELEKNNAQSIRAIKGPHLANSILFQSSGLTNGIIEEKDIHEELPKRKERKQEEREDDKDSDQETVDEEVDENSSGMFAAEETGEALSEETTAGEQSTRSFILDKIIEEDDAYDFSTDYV
Chain of NS-GI-Yc (Yc-fused NS deleted of the BC and A domains) (Q9BVP2 116-464, stated change not applied): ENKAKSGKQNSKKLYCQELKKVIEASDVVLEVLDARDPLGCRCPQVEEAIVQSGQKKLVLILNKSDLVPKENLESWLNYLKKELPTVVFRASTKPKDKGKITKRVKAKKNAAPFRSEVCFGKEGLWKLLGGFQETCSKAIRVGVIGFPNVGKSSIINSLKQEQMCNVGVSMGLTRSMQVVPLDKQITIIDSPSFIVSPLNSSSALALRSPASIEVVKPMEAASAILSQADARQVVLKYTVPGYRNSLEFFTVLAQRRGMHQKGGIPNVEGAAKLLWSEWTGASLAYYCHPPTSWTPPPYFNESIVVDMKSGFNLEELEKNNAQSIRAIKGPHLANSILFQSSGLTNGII

Row | Substance | BiFC efficiency (percent YFP+ cells in the CFP+ population) [1] [%] | BiFC efficiency (percent YFP+ cells in the CFP+ population) [2] [%] | BiFC efficiency (percent YFP+ cells in the CFP+ population) [3] [%]
1 | NS-GI-Yc (Yc-fused NS deleted of the BC and A domains) (from UniProt Q9BVP2 116-464) (domain or fragment) | 27.2 |  | 
2 | Yc-fused NS, wild type (Myc-tagged NS-Yc) (from UniProt Q9BVP2 1-549) (natural protein) | 48.7 | 15 | 9.4
